Assay results reported in patent US20020058267A1 (Pfizer, published 2002).

Legend:
[1] = biological target: forty-residue β-amyloid peptide (human Aβ), aged (aggregated) unless said otherwise (human) (UniProt P05067); assay: cell-based or functional assay
[2] = biological target: T1, BBP1 intracellular loop (pOZ339), Gal4 DNA-binding domain fusion (yeast; human, UniProt P04386 1-147); assay: yeast 2-hybrid, two independently derived clones of each strain against vector
T1 construct: also called BBP1 intracellular region; predicted intracellular domain of BBP1
Description: BBP1ΔC was made by using the pACT2-specific oligo #6 with antisense oligo #9 (5′-CTCGAG TCAAGATATGGGCTTGAAAAAAC). After TA cloning, isolation of the EcoRI-XhoI fragment and cloning into pACT2, the resultant plasmid, pEK219, expressed BBP1 from residue 68 to 175. Sequences encoding the BBP1 intracellular loop were amplified using oligonucleotides #10 (5′-CCTTCC ATGGAAGTGGCAGTCGCATTGTCT) plus #11 (5′-[…] TCAAAACCCTACAGTGCAAAAC). This product, containing BBP1 codons 185 to 217, was digested with NcoI+XhoI and cloned into pAS2 cleaved with NcoI +SalI to generate pOZ339. Construction of all Gα protein expression plasmids utilized the BamHI site near the center of each rat cDNA sequence as the site of fusion in pACT2 (Kang, Y. -S., Kane, J., Kurjan, J., Stadel, J., and Tipper, D. (1990) Mol Cell Biol 10, 2582-2590). Sense primers annealed to sequences 5′ of the BamHI site; antisense primers annealed to sequences 3′ of the stop codon and included a SalI restriction site. Primers were: […]
Structural analysis of BBP1 indicated it contained a structural motif known to be a Gα protein activating sequence in the related G protein-coupled receptors. […] The predicted intracellular domain of BBP1 was expressed as a Gal4 DNA-binding domain with portions of rat Gαs, Gαo, or Gαl2 expressed as Gal4 activation domain fusion proteins. […]

[3] = biological target: T2, human BAP42 fused to the Gal4 DNA-binding domain (BAP^BD; expression plasmid pEK162) (yeast; human, UniProt P04386 1-147; P05067 672-713); assay: yeast 2-hybrid
T2 construct: The screening strain also expressed free BAP42 (pEK149); also called BAP fusion protein; human BAP fusion protein
Description: These fusion proteins were assayed with the BAP fusion protein and responses compared to those of strains expressing the larger BBP1Δtm protein. The BBP1ΔC protein induced a weak Y2H response (compare BBP1ΔC to vector, FIG. 4), but the BBP1ΔN protein, containing the first tm domain and adjacent amino-proximal sequences produced a response only slightly weaker than that observed with BBP1Δtm.
Bioassays: Strains were grown overnight in 2 ml SC medium lacking leucine and tryptophan to a density of approximately 7×10⁷ cells per ml. Cells were counted and 10-fold serial dilutions made from […] in sterile water. These samples were spotted in 5 μl aliquots on SC medium lacking leucine, tryptophan and histidine and containing 25 mM 3-amino-triazole. Plates were incubated at 30° C. for 2 to 3 days. Positive protein/protein interactions were identified by increased prototrophic growth compared to control strains expressing the Gal4 DNA-binding domain fusion protein plus an irrelevant transcriptional activation domain fusion protein (or simply containing the pACT vector without inserted sequences). This assay method was highly reproducible and provided for the detection of subtle inductions of growth mediated by the specific interaction between target proteins. […]

Molecule: BBP1 expressed in transfected cells from the BBP1 expression plasmid pBBP (pOZ363) (receptor)
- % apoptotic nuclei, Ntera2 neurons, 10 µM aged Aβ for 48 hrs [1]: 22.3%
- % apoptotic nuclei, Ntera2 stem cells, 10 µM aged Aβ for 48 hrs [1]: 12.3%
- cell viability after aggregated Aβ peptide for 48 hrs (loss of total cells) (% of total cells) [1]: 22

B1: rat Gαs C-terminal region (pOZ345), Gal4 activation domain fusion (other, UniProt P63095 235-394, looked up, not shown: large carriers)
chain: IQCFNDVTAIIFVVASSSYNMVIREDNQTNRLQEALNLFKSIWNNRWLRTISVILFLNKQDLLAEKVLAGKSKIEDYFPEFARYTTPEDATPEPGEDPRVTRAKYFIRDEFLRISTASGDGRHYCYPHFTCAVDTENIRRVFNDCRDIIQRMHLRQYELL
notes: range 235-394; also called Gas
- binding result [2]: binds

B2: BBP1ΔN (pEK216), Gal4 activation domain fusion (other, not shown: small tags and cut ends)
chain: PKINDATQEPVNCTNYTAHVSCFPAPNITCKDSSGNETHFTGNEVGFFKPISCRNVNGYSYKVAVALSLFLGWLGADRF
notes: Encodes the first tm domain plus the preceding 52 amino acids; also called BBP1?N (so in the source); ?N construct
- binding result [3]: binds

B3: rat Gαi2 C-terminal region (pOZ348), Gal4 activation domain fusion (other, UniProt P04897 213-355, looked up, not shown: large carriers)
chain: IHCFEGVTAIIFCVALSAYDLVLAEDEEMNRMHESMKLFDSICNNKWFTDTSIILFLNKKDLFEEKITQSPLTICFPEYTGANKYDEAASYIQSKFEDLNKRKDTKEIYTHFTCATDTKNVQFVFDAVTDVIIKNNLKDCGLF
notes: range 213-355; also called Gai2
- binding result [2]: binds
